The test system of test [1] is tRNA^Tyr precursor having on the 5′ end an additional sequence. The test is described as follows: Confirmation of C5 protein and M1 RNA (RNase P) cleavage activity. It is filed as biochemical. To be noted: 150 pmol tRNA^Tyr precursor; 7M urea denatured polyacrylamide gel, methylene blue; FIG. 7. As for the experimental part:
In order to assay enzyme activity, 150 pmol of the tRNA^Tyr precursor having on the 5′ end an additional sequence was subjected to the reaction with 30 pmol of C5 proteins and […] of M1 RNA. The reaction buffer comprises 50 mM Tris-HCl (pH 7.4), 10 mM MgCl2, and 100 mM NH4Cl. The reaction solution was separated using a 7M urea-containing denatured polyacrylamide gel, and nucleic acid components were stained with methylene blue.

The test system of a further test is mt tRNA^Trp. The test is described as follows: Assay of aminoacylation activity using 14C tryptophan. It is filed as biochemical, yeast. To be noted: 30° C., 0-16 minutes; mtWRS with mt tRNA^Trp; FIG. 11. The protocol:
In order to assay enzyme activity, aminoacylation was carried out using ^14C tryptophan. The reaction solution having the composition shown below was heated at 30° C. for about 5 minutes while the enzyme was removed therefrom. Thereafter, the enzyme was added, the mixture was incubated at 30° C., the mixture was spotted on a filter wetted with 5% TCA 0, 1, 4, 9, and 16 minutes after incubation, and the filter was then soaked in 5% TCA. After spotting of the reaction solution at each time point was completed, 5% TCA was discarded, and fresh 5% TCA was added to the beaker, followed by shaking for 10 minutes. This procedure was repeated twice, 100% ethanol was added, and the mixture was lightly shaken, followed by dehydration under an electric heat. Thereafter, the resultant was soaked in a scintillator, and the samples were counted using a liquid scintillation counter.
The reaction solution for aminoacylation (50 μl) was prepared by diluting 10 μl of 5×AAM (aminoacylation mixture), 0.05 A260 units of mt tRNA^Trp, an adequate amount of enzyme (depending on the concentration), and 2 μl of ^14C tryptophan in dH2O.
The 5×AAM (aminoacylation mixture) comprised 500 mM Tris-HCl (pH 7.6), 50 mM MgCl2, 200 mM KCl, and 20 mM ATP.
A scintillator (1 liter) was prepared by diluting 4 g of Dotite DPO and 0.1 g of Dotite POPOP in toluene.

B1: C5 protein: protein component of E. coli RNase P (rnpA gene), expressed from pETC5 (protein, UniProt P0A7Y8 1-119, looked up)
Ribonuclease P protein …: MVKLAFPRELRLLTPSQFTFVFQQPQRAGTPQITILGRLNSLGHPRIGLTVAKKNVRRAHERNRIKRLTRESFRLRQHELPAMDFVVVAKKGVADLDNRALSEALEKLWRRHCRLARGS
Consider B1, for which the cleavage activity entry in test [1] is recorded as “Cleavage activity could not be confirmed”.

B2: mtWRS: yeast (Saccharomyces cerevisiae) mitochondrial tryptophanyl tRNA synthetase, SEQ ID NO: 2, His-tagged, expressed from pYC2WRS (protein)
chain: ISTVQRADFKLNSEALHSNATVFSMIQPTGCFHLGNYLGATRVWTDLCELKQPGQELIFGVADLHAITVPKPDGEMFRKFRHEAVASILAVGVDPEKASVIYQSAIPQHSELHWLLSTLASMGLLNRMTQWKSKSNIKQSTNGDYLVNDSDVGKVRLGLFSYPVLQAADILLYKSTHVPVGDDQSQHLELTRHLAEKFNKMYKKNFFPKPVTMLAQTKKVLSLSTPEKKMSKSDPNHDSVIFLNDEPKAIQKKIRKALTDSISDRFYYDPVERPGVSNLINIVSGIQRKSIEDVVEDVSRFNNYRDFKDYVSEVIIEELKGPRTEFEKYINEPTYLHSVVESGMRKAREKAAKNLADIHKIMGF
modifications: His tag
Turning to B2, the “capacity of tRNA for accepting 14C-tryptophan” value in the test on mt tRNA^Trp is reported as “acceptance of tryptophan was observed”.

The values above are taken from patent US20090023139A1, “Method For Site-Specifically Introducing Non-Natural Amino Acid Into Protien Using Mitochondrial Protein and Method For Effectively Preparing Trna” (priority 2004, published 2009).
